In the supplement of paper PMC9732359:
± gives the uncertainty stated by the source.

Assay: protein stability index of a GFP-peptide fusion (yeast GPS) (PSI 1-4); higher = more stable; sorted into four equal gates, so the index is relative within each strain
In short: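 Sequencing reads from sorted gates were used to score each peptide. The library consisted of tiled 17-residue yeast protein peptides fused downstream of GFP on a Cherry-expressing plasmid, pooled and carried in yeast. Mid-log cultures in leucine-free medium were split into four equal gates by GFP/Cherry ratio, and each gate's plasmids were PCR-amplified and Illumina-sequenced. The protein stability index adds up, over all gates, the read frequency multiplied by the gate number.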

Sequence | protein stability index (doa10∆) | protein stability index (pdr5∆) | protein stability index (san1∆) | protein stability index (ubr1∆)
KASLLLHVLVAHKLKKS [FAS2] | 1.38 ± 0.055 | 1.27 ± 0.043 | 1.12 ± 0.088 | 1.25 ± 0.038
SKLEGTINKAVQVKVLG [ESC2] | 1.57 ± 0.11 | 1.93 ± 0.12 | 1.66 ± 0.21 | 1.75 ± 0.086
IALILAIQMVDPASFYL [SMC3] | 1.16 ± 0.05 | 1.25 ± 0.055 | 2.1 ± 0.12 | 1.98 ± 0.063
PFGAKSTKSNKTRNPLT [RPL8A] | 2.73 ± 0.072 | 2.99 ± 0.062 | 2.88 ± 0.057 | 2.8 ± 0.056
MTAVRRSTRIRTKSQVI [IRR1] | 2.9 ± 0.15 | 3.23 ± 0.081 | 3.42 ± 0.077 | 3.38 ± 0.1
MSEQQWREQLRNRDIAL [ROX3] | 2.98 ± 0.071 | 2.85 ± 0.056 | 3 ± 0.054 | 2.42 ± 0.048
ANEDEEEQLDALECRLA [CSN12] |  | 2.65 ± 0.28 |  | 
ITKLLEINLSKIFQTTP [YCS4] | 2.58 ± 0.054 | 2.23 ± 0.044 | 2.43 ± 0.042 | 2.6 ± 0.033
TLGKLSTSVGWKYEDVV [RPL16B] | 2.82 ± 0.062 | 2.42 ± 0.069 | 2.71 ± 0.11 | 2.81 ± 0.059
ADVTSNIDSSAQFTFGK [YOR098C/NUP1] | 3.05 ± 0.093 | 3.25 ± 0.087 | 2.89 ± 0.091 | 3.13 ± 0.057
MSTDVAAAQAQSKIDLT [SEM1] | 2.91 ± 0.079 | 2.82 ± 0.095 | 2.98 ± 0.079 | 2.88 ± 0.083
YSKSFEQFKMVSMITDH [POP1] | 2.3 ± 0.12 | 1.97 ± 0.23 | 1.62 ± 0.26 | 1.95 ± 0.15
MGGIREKKAEYFAKLRE [RPP0] | 3.48 ± 0.081 | 3.37 ± 0.082 | 3.13 ± 0.061 | 3.55 ± 0.095
FDMTNHYNDSQQLRTWK [SRB8] | 2.99 ± 0.079 | 3.01 ± 0.084 | 3 ± 0.078 | 2.9 ± 0.061
GQLTGIYRYKYKVMHQI [PRP8] | 2.9 ± 0.14 | 2.2 ± 0.13 | 2.91 ± 0.088 | 2.42 ± 0.081
KESDDPSIPLVIIRRLK [POP1] | 3.12 ± 0.1 | 2.07 ± 0.064 | 3.06 ± 0.068 | 3.05 ± 0.093
RAGVTHVLSRLSYISAL [RET1] | 1.47 ± 0.074 | 1.26 ± 0.068 | 1.22 ± 0.11 | 1.23 ± 0.081
PTVSLTINLDRFMKGRR [RPC82] | 2.38 ± 0.083 | 2.48 ± 0.06 | 2.62 ± 0.062 | 2.63 ± 0.081
GGFTAYGGADYGEATSP [RPO21] | 1.79 ± 0.093 | 1.9 ± 0.069 | 1.98 ± 0.099 | 2.01 ± 0.068
SMMSDGIEHFDIPPPAI [RPO31] | 1.97 ± 0.16 | 1.81 ± 0.13 | 1.92 ± 0.17 | 2.06 ± 0.15
LISGPRNQILVSITDAP [YMR129W/POM152] | 1.68 ± 0.092 | 1.81 ± 0.084 | 1.46 ± 0.1 | 1.68 ± 0.079
EIMYTGVSISVSFNSKQ [SMC3] | 1.61 ± 0.089 | 1.99 ± 0.07 | 2.83 ± 0.087 | 2.29 ± 0.1
VTNNVEEGEFIIDLYSL [TAF14] | 3.38 ± 0.085 | 3.48 ± 0.083 | 3.58 ± 0.057 | 3.54 ± 0.06
ANLLFKKEKLKQENSTL [RPC82] | 2.15 ± 0.077 | 2.24 ± 0.067 | 1.92 ± 0.12 | 1.93 ± 0.06
ESLYDLIEFQPSQGVHY [MED6] | 2.84 ± 0.078 | 2.87 ± 0.061 | 2.91 ± 0.051 | 2.7 ± 0.051
KLRGDLREAPADYWTHA [SNF6] |  | 3 ± 0.27 |  | 2.99 ± 0.12
FQIPTNLDAAAAGTSQA [RPC10] | 2.44 ± 0.14 | 2.83 ± 0.09 | 2.65 ± 0.095 | 2.66 ± 0.085

Sequence | protein stability index (doa10∆) | protein stability index (pdr5∆) | protein stability index (san1∆) | protein stability index (ubr1∆)
FHVGFIAKIKKVCECVC [RPO21] | 1.15 ± 0.046 | 1.27 ± 0.064 | 1.43 ± 0.11 | 1.26 ± 0.059
VDLEEVMDTIQEQITLY [SSN8] | 3.33 ± 0.13 | 3.18 ± 0.087 | 3.16 ± 0.079 | 3.32 ± 0.08
ISLYLLNLLSQNNTTKF [RPN12] | 1.53 ± 0.044 | 1.72 ± 0.054 | 1.32 ± 0.073 | 1.36 ± 0.039
IVPLTEGDIQVLKSYGA [RPT1] | 3.14 ± 0.09 | 3.14 ± 0.11 | 2.77 ± 0.062 | 2.99 ± 0.052
QRRGPLVVYAEDNGIVK [RPL4A] | 3.43 ± 0.11 | 3.14 ± 0.095 | 2.46 ± 0.093 | 2.68 ± 0.11
VKPQYDEIHIPAPSKPV [BRR2] | 2.59 ± 0.097 | 2.59 ± 0.12 | 2.41 ± 0.084 | 1.83 ± 0.093
GSPSLTSPQYIPSPLSS [NUT1] | 2.56 ± 0.042 | 2.52 ± 0.033 | 2.65 ± 0.037 | 2.52 ± 0.028
YHQLLSDIESLEALMDI [SRB8] | 2.9 ± 0.13 | 2.84 ± 0.19 |  | 2.25 ± 0.2
RGRSVMKESVVEINSSE [ESC2] | 3.15 ± 0.11 | 2.83 ± 0.14 | 3.09 ± 0.17 | 2.98 ± 0.1
IESALKSKLDQDSTSEN [RPN2] | 2.76 ± 0.072 | 3.04 ± 0.073 | 2.87 ± 0.076 | 2.95 ± 0.1
LATRRVLQEYRLTKQAF [RPO21] | 2.99 ± 0.082 | 3.1 ± 0.1 | 3.01 ± 0.065 | 3.17 ± 0.056
LLDILVKGETRIQNRVK [PRP8] | 3.38 ± 0.14 | 2.98 ± 0.097 | 3.49 ± 0.096 | 2.94 ± 0.068
DFLRKATAFNKTRGPFH [RPL16A] | 2.19 ± 0.16 | 2.96 ± 0.2 | 3.04 ± 0.086 | 3.03 ± 0.12
KNMPVIYNNIVSNIEGI [RGR1] | 2.43 ± 0.055 | 2.69 ± 0.066 | 2.5 ± 0.05 | 2.56 ± 0.041
NECQRLQNIVMDCTKEE [YIL149C/MLP2] | 2.61 ± 0.093 | 3.47 ± 0.11 | 3.66 ± 0.2 | 3.4 ± 0.12
AHLYMLEPSGSYWGYKG [PRE10] | 1.66 ± 0.069 | 1.7 ± 0.13 | 2.06 ± 0.21 | 1.84 ± 0.082
IGDTIADGPTMREITET [RPO21] | 3.48 ± 0.11 | 3.52 ± 0.092 | 3.52 ± 0.045 | 3.39 ± 0.059
IQQLHSVLNPFLLRRVK [ISW2] | 2.06 ± 0.061 | 1.99 ± 0.05 | 2.2 ± 0.059 | 2.37 ± 0.041
KTSKRTKRWYKNAGLGF [RPS11A] | 3.3 ± 0.091 | 2.84 ± 0.12 | 3.17 ± 0.11 | 3.4 ± 0.085
DTRITPSKVSKIDSHVV [PRE6] | 2.76 ± 0.078 | 3.09 ± 0.064 | 2.46 ± 0.14 | 2.72 ± 0.063
DRAQNSYQPMYQRPMQV [SSN3] | 1.55 ± 0.047 | 1.73 ± 0.057 | 1.55 ± 0.16 | 2.64 ± 0.041
LKIFEGIPPPYDKKKRV [RPL16B] | 1.43 ± 0.15 | 2.51 ± 0.087 | 1.33 ± 0.24 | 1.51 ± 0.066
LPPEKIYSPLHSFIKML [SIR2] | 1.65 ± 0.034 | 1.88 ± 0.032 | 1.72 ± 0.05 | 1.71 ± 0.032
EAESQWYIEKVIRIPMQ [CSI1] |  | 2.96 ± 0.24 |  | 2.71 ± 0.24
KKLLEVHDIFSKIFNES [CDC53] | 2.84 ± 0.072 | 2.71 ± 0.059 | 2.77 ± 0.057 | 2.66 ± 0.05
NKKLIKKLSKKYNAFIA [RPL1A] | 1.45 ± 0.048 | 1.94 ± 0.052 | 1.45 ± 0.12 | 1.88 ± 0.049
